From paper PMC10559304 (Molecular Biology of the Cell, 2023) come the findings set out here.

Data set [1] addresses D. melanogaster KLP61F extended bipolar assembly domain (BASS-XL) minifilament (D. melanogaster) (UniProt P46863). The data set is described as follows: crystal structure.
Data set [2] addresses Taxol-stabilized microtubules of unlabeled, Alexa 647-labeled and biotinylated tubulin (50:2:1.5) (not stated (Pork or Bovine brains)). Nature of the data set: single-molecule TIRF microscopy motility assay.
In data set [3] the target is GMPCPP-polymerized, Taxol-stabilized microtubules of the crosslinking and sliding assay (surface-immobilized HiLyte 647/biotin MTs and free rhodamine MTs). Nature of the data set: MT crosslinking and sliding assay by three-colour TIRF microscopy.
Data set [4] deals with microtubules of biotin- and Alexa-Fluor-633-labeled porcine tubulin, polymerized with GMPCPP or Paclitaxel (porcine). The data set is described as follows: single-molecule TIRF microscopy motility assay.
The data set “mass photometry” deals with the molecule itself. Nature of the data set: mass photometry.
For data set [5], the target named is microtubules of biotin- and Alexa-Fluor-633-labeled porcine tubulin, polymerized with GMPCPP or Paclitaxel (porcine). The data set is described as follows: single-molecule TIRF microscopy motility assay. This is another data set of the same source.
For data set [6] the target is unchanged. Nature of the data set: single-molecule TIRF microscopy motility assay. This is another data set of the same source.
Data set [7] shares this target. Nature of the data set: single-molecule TIRF microscopy motility assay. The source holds these as a separate data set.
The target is the same in data set [8]. Nature of the data set: single-molecule TIRF microscopy motility assay. This is another data set of the same source.
Data set [9] concerns the molecule itself. Nature of the data set: single-molecule TIRF microscopy, Neon Green spot intensities.

Where two headings read alike, the source gives them in different places.

As a reminder, the stoichiometry N is the number of molecules, sites or subunits per partner or assembly. “D. melanogaster KLP61F extended bipolar assembly domain (BASS-XL) minifilament (from UniProt P46863 597-833) (domain or fragment)” yielded a stoichiometry N in [1] of 4.

“human Eg5 kinesin-5 minitetramer without tail, labeled with Tetra-methyl Rhodamine (from UniProt P52732;P46863)”: in [2], the lifetime at MT plus-ends, long population (Weibull a2) was 140 s and the lifetime at MT plus-ends, short population (Weibull a1) turned out to be 14.6 s.

“full-length human kinesin-5 (Eg5) without the tail, GFP fusion (domain or fragment)” registered a percent of surface-immobilized MTs crosslinked to free MTs in [3] of 54%.

B1: D. melanogaster KLP61F kinesin-5 minitetramer with tail, fused to Neon Green (other)
chain: MDISGGNTSRQPQKKSNQNIQVYVRVRPLNSRERCIRSAEVVDVVGPREVVTRHTLDSKLTKKFTFDRSFGPESKQCDVYSVVVSPLIEEVLNGYNCTVFAYGQTGTGKTHTMVGNETAELKSSWEDDSDIGIIPRALSHLFDELRMMEVEYTMRISYLELYNEELCDLLSTDDTTKIRIFDDSTKKGSVIIQGLEEIPVHSKDDVYKLLEKGKERRKTATTLMNAQSSRSHTVFSIVVHIRENGIEGEDMLKIGKLNLVDLAGSENVSKAGNEKGIRVRETVNINQSLLTLGRVITALVDRAPHVPYRESKLTRLLQESLGGRTKTSIIATISPGHKDIEETLSTLEYAHRAKNIQNKPEVNQKLTKKAQSLQDQTNLHNKLIGEVMKISDQHSQAFVAKLMEQMQQQQLLMSKEIQTNLQVIEENNQRHKAMLDSMQEKFATIIDSSLQSVEEHAKQMHKKLEQLGAMSLPDAEELQNLQEELANERALAQQEDALLESMMMQMEQIKNLRSKNSISMSVHLNKMEESRLTRNHRIDDIKSGIQDYQKLGIEASQSAQAELTSQMEAGMLCLDQGVANCSMLQVHMKNLNQKYEKETNENVGSVQICEQELVRFQQSELKTYAPTGTTPSKRDFVYPRTLVATSPHQEIVRRYRQELDWSDLDTTATIDECSEGEHDVSMHSVQELSETETIMNSTPIEPVDGVTVKRGCGTTRNSNSNALKPPVATGGKRSSSLSRSLTPSKTSPRGSPAFVRHNKENVA
Take B1: the MT plus-end dwell time in [4] worked out at 125 s; in data set [5], 25 s; in data set [6] it was 117 s; in [7] it was 147 s; in [8], 267 s. For the same molecule, the “stoichiometry N” value in “mass photometry” is 4; in data set [9] it was 5 to 10 motors per cluster. In addition, the percent of surface-immobilized MTs crosslinked to free MTs in data set [3] is 24%.

B2: D. melanogaster KLP61F kinesin-5 minitetramer without tail, fused to Neon Green (other)
chain: MDISGGNTSRQPQKKSNQNIQVYVRVRPLNSRERCIRSAEVVDVVGPREVVTRHTLDSKLTKKFTFDRSFGPESKQCDVYSVVVSPLIEEVLNGYNCTVFAYGQTGTGKTHTMVGNETAELKSSWEDDSDIGIIPRALSHLFDELRMMEVEYTMRISYLELYNEELCDLLSTDDTTKIRIFDDSTKKGSVIIQGLEEIPVHSKDDVYKLLEKGKERRKTATTLMNAQSSRSHTVFSIVVHIRENGIEGEDMLKIGKLNLVDLAGSENVSKAGNEKGIRVRETVNINQSLLTLGRVITALVDRAPHVPYRESKLTRLLQESLGGRTKTSIIATISPGHKDIEETLSTLEYAHRAKNIQNKPEVNQKLTKKAQSLQDQTNLHNKLIGEVMKISDQHSQAFVAKLMEQMQQQQLLMSKEIQTNLQVIEENNQRHKAMLDSMQEKFATIIDSSLQSVEEHAKQMHKKLEQLGAMSLPDAEELQNLQEELANERALAQQEDALLESMMMQMEQIKNLRSKNSISMSVHLNKMEESRLTRNHRIDDIKSGIQDYQKLGIEASQSAQAELTSQMEAGMLCLDQGVANCSMLQVHMKNLNQKYEKETNENVGSV
Regarding B2, the “stoichiometry N” value in “mass photometry” was found to be 4. The MT plus-end dwell time is 78 s in data set [6] and 25 s in data set [8]. In addition, the percent of surface-immobilized MTs crosslinked to free MTs in data set [3] is 2%.
